Patent EP1073891B1, “METHOD OF PREDICTING RECEPTOR MODULATING ACTIVITY” (Duke University, priority 1998, dated 1999)

Tests used:
ER = target: T1, ER (Homo sapiens, UniProt P03372); experiment: Disruption of tamoxifen activated ER transcription on several promoters (1x-ERE-Luc, 3X-ERE-Luc, TK-ERE-Luc, C3-Luc) (Example 4.5); type: cell-based; settings: tamoxifen (10nM), TK-ERE-Luc and C3-Luc
T1 construct: expressed in transfected cells; host or cells: HepG2
T1 sequence (P03372 1-595): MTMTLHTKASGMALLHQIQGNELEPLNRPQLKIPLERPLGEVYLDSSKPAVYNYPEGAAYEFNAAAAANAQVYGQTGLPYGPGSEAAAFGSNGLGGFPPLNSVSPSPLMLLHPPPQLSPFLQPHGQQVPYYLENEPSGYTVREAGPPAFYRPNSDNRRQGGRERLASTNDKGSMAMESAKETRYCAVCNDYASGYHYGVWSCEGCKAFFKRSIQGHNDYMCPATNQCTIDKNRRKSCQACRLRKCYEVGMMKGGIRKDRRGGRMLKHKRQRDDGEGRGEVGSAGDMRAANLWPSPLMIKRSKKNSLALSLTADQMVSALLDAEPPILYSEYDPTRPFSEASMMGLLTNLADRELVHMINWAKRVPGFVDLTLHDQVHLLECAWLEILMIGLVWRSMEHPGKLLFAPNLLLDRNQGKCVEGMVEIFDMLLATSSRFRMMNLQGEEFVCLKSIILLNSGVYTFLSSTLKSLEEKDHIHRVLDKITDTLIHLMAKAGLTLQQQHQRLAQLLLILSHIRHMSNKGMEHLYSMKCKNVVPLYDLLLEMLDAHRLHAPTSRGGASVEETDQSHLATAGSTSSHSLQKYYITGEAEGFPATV

ERα = target: T2, ERα (Homo sapiens, UniProt P03372); experiment: Phage ELISA / fingerprint on ER immobilized on biotinylated ERE (Examples 2.3-2.5); type: binding; design: purchased PanVera Corporation, Madison, WI; settings: for binding to ERα in the in vitro phage display system: presence or absence of estradiol / 4-OH-tamoxifen
T2 sequence (P03372 1-595): T1 sequence (P03372 1-595)

Sequence: SSLTSRDFGSWYASR [α II]
- block of tamoxifen activated transcription on distinct promoters (ER): blocks tamoxifen partial agonist activity from all promoters tested
- binding of the probe to ER α (ERα; in the presence of modulators): binds to ER α in the presence of any compound that binds to the estrogen receptor
- binding to ERα in the in vitro phage display system (ERα): bind in the presence of estradiol and 4-OH-tamoxifen, but not in their absence

Sequence: SSWDMHQFFWEGVSR [α/β III]
- binding to ERα in the in vitro phage display system (ERα): binds to ERα only in the presence of 4-OH-tamoxifen
